Laboratory results published in the supplement of paper PMC10567573.

B1: INTS3 (parent)
chain: FHPIKETVVEEPVDITPYLDQLDE

Variants of: B1
Test: protein stability index of a GFP-peptide fusion (GPS, HEK-293T) (PSI 1-6); higher = more stable
Settings: c terminus: a fixed tail appended
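Further: lentivirally expressed fusions sorted by FACS into six bins by GFP to DsRed ratio, PSI derived from sequencing read proportions per bin multiplied by bin number.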

Variant	protein stability index
T7H	3.35
T7I	3.06
T7K	2.91
T7L	2.7
T7M	3.55
T7N	3.55
T7P	3.31
T7Q	3.26
T7R	3.04
T7S	3.57
T7V	3.12
T7W	2.89
T7Y	2.88
V8A	3.87
V8C	3.76
V8D	3.9
V8E	4.18
V8F	2.73
V8G	3.91
V8H	3.19
V8I	2.88
V8K	3.49
V8L	3.56
V8M	2.95

Variant	protein stability index
V8N	3.59
V8P	3.73
V8Q	4.21
V8R	3.03
V8S	3.38
V8T	3.53
V8W	2.54
V8Y	3.06
V9A	3.72
V9C	2.89
V9D	3.62
V9E	4.25
V9F	2.65
V9G	3.93
V9H	3.05
V9I	3.04
V9K	3.3
V9L	3.19
V9M	3.69
V9N	3.81
V9P	3.62
V9Q	3.77
V9R	3.08
V9S	3.25

Variant	protein stability index
V9T	3.22
V9W	2
V9Y	2.97
E10A	2.39
E10C	2.19
E10D	3.24
E10F	1.54
E10G	2.8
E10H	2.56
E10I	2.08
E10K	1.84
E10L	2.69
E10M	2.16
E10N	2.59
E10P	2.98
E10Q	2.99
E10R	2.1
E10S	2.54
E10T	2.56
E10V	2.12
E10Y	1.8
E11A	2.73
E11C	2.78
E11D	3.15

Variant	protein stability index
E11F	1.92
E11G	3.19
E11H	2.87
E11I	1.77
E11K	3.02
E11L	2.76
E11M	2.93
E11N	2.98
E11P	2.95
E11Q	3.53
E11R	2.49
E11S	2.81
E11T	2.54
E11V	2.79
E11W	2.11
E11Y	2.51
P12A	2.99
P12C	3.03
P12D	3.52
P12E	3.52
P12F	3.65
P12G	3.58
P12H	3.29
P12I	2.93

Variant	protein stability index
P12K	3.04
P12L	3.1
P12M	2.65
P12N	3.57
P12Q	3.52
P12R	3.01
P12S	3.31
P12T	3.18
P12V	3.06
P12W	2.79
P12Y	2.81
V13A	3.61
V13C	3.08
V13D	3.83
V13E	3.34
V13F	3.05
V13G	3.27
V13H	3.32
V13I	3.4
V13K	3.05
V13L	3.22
V13M	3
V13N	3.42
V13P	2.43

Variant	protein stability index
V13Q	3.25
V13R	2.58
V13S	3.67
V13T	3.8
V13W	2.92
V13Y	3.2
D14A	3.05
D14C	3.12
D14E	3.18
D14F	1.93
D14G	2.42
D14H	3.11
D14I	2.9
D14K	3.13
D14L	2.91
D14M	2.14
D14N	3.04
D14P	3.09
D14Q	2.91
D14R	2.62
D14S	2.75
D14T	3.18
D14V	2.73
D14W	1.63

Variant	protein stability index
D14Y	2.11
I15A	3.43
I15C	3.49
I15D	4.18
I15E	4.59
I15F	2.4
I15G	3.23
I15H	3.03
I15K	3.86
I15L	3.25
I15M	2.86
I15N	2.32
I15P	3.53
I15Q	3.79
I15R	4.13
I15S	2.92
I15T	4.26
I15V	3.98
I15W	2.39
I15Y	3.3
T16A	3.91
T16C	3.09
T16D	3.79
T16E	3.75

Variant	protein stability index
T16F	3.2
T16G	3.44
T16H	2.79
T16I	3.41
T16K	3.45
T16L	3.05
T16M	3.73
T16N	3.18
T16P	3
T16Q	3.79
T16R	2.84
T16S	3.32
T16V	3.14
T16W	2.33
T16Y	2.77
P17A	3.25
P17C	3.17
P17D	3.58
P17E	3.89
P17F	3.08
P17G	3.46
P17H	3.63
P17I	2.49
P17K	2.88

Variant	protein stability index
P17L	2.92
P17M	3.17
P17N	3.19
P17Q	3.52
P17R	2.39
P17S	3.12
P17T	2.94
P17V	3.21
P17W	3.61
P17Y	3.75
Y18A	3.58
Y18C	3.47
Y18D	3.43
Y18E	3.36
Y18F	3.79
Y18G	3.69
Y18H	3.5
Y18I	2.7
Y18K	3.77
Y18L	3.88
Y18M	3.58
Y18N	3.72
Y18P	3.23
Y18Q	3.95

Variant	protein stability index
Y18R	3.58
Y18S	3.77
Y18T	3.71
Y18V	3.87
Y18W	3.11
L19A	3.21
L19C	3.21
L19D	3.24
L19E	4.34
L19F	3.02
L19G	3.32
L19H	3.18
L19I	3.12
L19K	3.24
L19M	2.86
L19N	3.66
L19P	3.88
L19Q	2.72
L19R	3.14
L19S	3.98
L19T	3.31
L19V	4.03
L19W	2.56
L19Y	3.2

Variant	protein stability index
D20A	3.11
D20C	2.49
D20E	3.48
D20F	2.41
D20G	2.99
D20H	3
D20I	2.35
D20K	2.78
D20L	2.28
D20M	2.02
D20N	2.94
D20P	2
D20Q	2.41
D20R	2.96
D20S	3.3
D20T	2.94
D20V	2.11
D20W	2.14
D20Y	2.08
Q21A	3.73
Q21C	2.55
Q21D	3.51
Q21E	3.62
Q21F	2.55

Variant	protein stability index
Q21G	3.56
Q21H	3.26
Q21I	3.26
Q21K	3.05
Q21L	3.05
Q21M	3.42
Q21N	3.06
Q21P	3.15
Q21R	2.71
Q21S	2.82
Q21T	3.19
Q21V	4.05
Q21W	2.26
Q21Y	2.5
L22A	3.9
L22C	3.82
L22D	3.62
L22E	3.68
L22F	3.03
L22G	3.41
L22H	3.5
L22I	3.83
L22K	3.7
L22M	2.57

Variant	protein stability index
L22N	3.85
L22P	3.61
L22Q	4.11
L22R	3.71
L22S	3.13
L22T	3.38
L22V	3.41
L22W	2.73
L22Y	3.16
D23A	2.35
D23C	2.48
D23E	3.29
D23F	2.28
D23G	2.59
D23H	2.66
D23I	2.06
D23K	2.39
D23L	2.21
D23M	2.22
D23N	2.8
D23P	3.02
D23Q	3.02
D23R	2.63
D23S	2.68

Variant	protein stability index
D23T	3.08
D23V	2.3
D23W	1.8
D23Y	2.18
E24A	2.58
E24C	2.77
E24D	3.75
E24F	1.93
E24G	2.73
E24H	2.66
E24I	2.44
E24K	2.42
E24L	2.85
E24M	2.83
E24N	3.17
E24P	2.63
E24Q	2.7
E24R	2.33
E24S	2.9
E24T	3.09
E24V	2.99
E24W	1.84
